The chains are these.
B3: IREN 10B (other)
chain: MSGSQNNDKRQFLLERLLDAVKQCQIRFGGRKEIASDSDSRVTCLCAQFEAVLQHGLKRSRGLALTAAAIKQAAGFASKTETEPVFWYYVKEVLNKHELQRFYSLRHIASDVGRGRAWLRCALNEHSLERYLHMLLADRCRLSTFYEDWSFVMDEERSSMLPTMAAGLNSILFAINIDNKDLNGQSKFAPTVSDLLKESTQNVTSLLKESTQGVSSLFREITASSAVSILIKPEQETDPLPVVSRNVSADAKCKKERKKKKKVTNIISFDDEEDEQNSGDVFKKTPGAGESSEDNSDRSSVNIMSAFESPFGPNSNGSQSSNSWKIDSLSLNGEFGYQKLDVKSIDDEDVDENEDDVYGNSSGRKHRGHSESPEKPLEGNTCLSQMHSWAPLKVLHNDSDILFPVSGVGSYSPADAPLGSLENGTGPEDHVLPDPGLRYSVEASSPGHGSPLSSLLPSASVPESMTISELRQATVAMMNRKDELEEENRSLRNLLDGEMEHSAALRQEVDTLKRKVAEQEERQGMKVQALARENEVLKVQLKKYVGAVQMLKREGQTAEVPNLWSVDGEVTVAEQKPGEIAEELASSYERKLIEVAEMHGELIEFNERLHRALVAKEALVSQMRQELIDLRGPVPGDLSQTSEDQSLSDFEISNRALINVWIPSVFLRGKAANAFHVYQVYIRIKDDEWNIYRRYTEFRSLHHKLQNKYPQVRAYNFPPKKAIGNKDAKFVEERRKQLQNYLRSVMNKVIQMVPEFAASPKKETLIQLMPFFVDITPPGEPVNSRPKAASRFPKLSRGQPRETRNVEPQSGDL
notes: Splice isoform of IREN; Used as both bait and prey in yeast two-hybrid; also called clone 10B
B4: IREN (other)
chain: MSGSQNNDKRQFLLERLLDAVKQCQIRFGGRKEIASDSDSRVTCLCAQFEAVLQHGLKRSRGLALTAAAIKQAAGFASKTETEPVFWYYVKEVLNKHELQRFYSLRHIASDVGRGRAWLRCALNEHSLERYLHMLLADRCRLSTFYEDWSFVMDEERSSMLPTMAAGLNSILFAINIDNKDLNGQSKFAPTVSDLLKESTQNVTSLLKESTQGVSSLFREITASSAVSILIKPEQETDPLPVVSRNVSADAKCKKERKKKKKVTNIISFDDEEDEQNSGDVFKKTPGAGESSEDNSDRSSVNIMSAFESPFGPNSNGSQSSNSWKIDSLSLNGEFGYQKLDVKSIDDEDVDENEDDVYGNSSGRKHRGHSESPEKPLEGNTCLSQMHSWAPLKVLHNDSDILFPVSGVGSYSPADAPLGSLENGTGPEDHVLPDPGLRYSVEASSPGHGSPLSSLLPSASVPESMTISELRQATVAMMNRKDELEEENRSLRNLLDGEMEHSAALRQEVDTLKRKVAEQEERQGMKVQALASYLCYFVRRF
notes: Tested in yeast two-hybrid as a hybrid protein; the fusion partner is not included in the chain; also called IκB REgulator; IREN protein
B6: human TRAF2 (other, UniProt Q12933 1-501, looked up)
chain: MAAASVTPPGSLELLQPGFSKTLLGTKLEAKYLCSACRNVLRRPFQAQCGHRYCSFCLASILSSGPQNCAACVHEGIYEEGISILESSSAFPDNAARREVESLPAVCPSDGCTWKGTLKEYESCHEGRCPLMLTECPACKGLVRLGEKERHLEHECPERSLSCRHCRAPCCGADVKAHHEVCPKFPLTCDGCGKKKIPREKFQDHVKTCGKCRVPCRFHAIGCLETVEGEKQQEHEVQWLREHLAMLLSSVLEAKPLLGDQSHAGSELLQRCESLEKKTATFENIVCVLNREVERVAMTAEACSRQHRLDQDKIEALSSKVQQLERSIGLKDLAMADLEQKVLEMEASTYDGVFIWKISDFARKRQEAVAGRIPAIFSPAFYTSRYGYKMCLRIYLNGDGTGRGTHLSLFFVVMKGPNDALLRWPFNQKVTLMLLDQNNREHVIDAFRPDVTSSSFQRPVNDMNIASGCPLFCPVSKMEAKNSYVRDDAIFIKAIVDLTGL
notes: range 1-501; the fusion partner is not included in the chain; also called hTRAF2; full length TRAF2

The target in data set [1] is B6. As to the kind of experiment: yeast two-hybrid, bait TRAF2, prey IREN198-541. How it is done: (§1) Positive clones picked up in the two hybrid screen were subjected to lacZ color development test in SFY526 yeast cells, following Clontech Laboratories' manual (for details see above mentioned publications and patent applications). In brief, transformants were allowed to grow at 30° C. for 2-4 days until reaching about 2 mm in diameter, then were transferred onto Whatman filters. The filters went through a freeze/thaw treatment in order to permeabilize the cells, then soaked in a buffer (16.1 mg/ml Na₂HP0₄ 7H₂0; 5.5 mg/ml NaH₂P0₄′H₂0; 0.75 mg/ml KCl; 0.75 mg/ml MgS0₄′7H₂O, pH=7) containing 0.33 mg/ml X-gal and 0.35 mM β-mercaptoethanol. Colonies were monitored for development of blue color which is an indication for induction of β-galactosidase.
(§2) In order to narrow down the region on the TRAF2 molecule which interacts with IREN two additional constructs were made. One construct comprising the N-terminal part of the TRAF2 molecule, amino acids 1 to 224 designated RING₁₋₂₂₄ comprising the Ring finger and the zinc finger motifs. The second construct included only the C-terminal part of TRAF2, amino acids 225 to 501, covering the “TRAF-domain” as well as an additional 42 amino acids. These two constructs were used as baits in two hybrid tests.

Data set [2] addresses B4. As to the kind of experiment: yeast two-hybrid, bait TRAF2225-501, prey IREN. How it is done: as §1, §2
Data set [3] concerns the molecule itself. As to the kind of experiment: yeast two-hybrid, bait IREN 10B, prey IREN 10B.
Data set [4] concerns the molecule itself. As to the kind of experiment: yeast two-hybrid.
For data set [5], the target named is B6. As to the kind of experiment: yeast two-hybrid, bait TRAF2, prey IREN198-388. The procedure:
as §1, §2

Data set [6] concerns the target B4. As to the kind of experiment: yeast two-hybrid, bait TRAF2, prey IREN. How it is done:
as §1, §2

Data set [7] deals with B3. Description: yeast two-hybrid, bait TRAF2, prey IREN 10B.

Consider 6 molecules from US20090075889A1 (YEDA RESEARCH AND DEVELOPMENT, published 2009).

B1: IREN198-541 (other)
chain: ESTQNVTSLLKESTQGVSSLFREITASSAVSILIKPEQETDPLPVVSRNVSADAKCKKERKKKKKVTNIISFDDEEDEQNSGDVFKKTPGAGESSEDNSDRSSVNIMSAFESPFGPNSNGSQSSNSWKIDSLSLNGEFGYQKLDVKSIDDEDVDENEDDVYGNSSGRKHRGHSESPEKPLEGNTCLSQMHSWAPLKVLHNDSDILFPVSGVGSYSPADAPLGSLENGTGPEDHVLPDPGLRYSVEASSPGHGSPLSSLLPSASVPESMTISELRQATVAMMNRKDELEEENRSLRNLLDGEMEHSAALRQEVDTLKRKVAEQEERQGMKVQALASYLCYFVRRF
notes: Two-hybrid prey construct; also called N-terminal deletion mutant of IREN; IRENΔN
Consider B1, for which, in data set [1], the binding result is “binds”.

B2: TRAF2225-501 (other, human, UniProt Q12933 225-501, looked up)
chain: ETVEGEKQQEHEVQWLREHLAMLLSSVLEAKPLLGDQSHAGSELLQRCESLEKKTATFENIVCVLNREVERVAMTAEACSRQHRLDQDKIEALSSKVQQLERSIGLKDLAMADLEQKVLEMEASTYDGVFIWKISDFARKRQEAVAGRIPAIFSPAFYTSRYGYKMCLRIYLNGDGTGRGTHLSLFFVVMKGPNDALLRWPFNQKVTLMLLDQNNREHVIDAFRPDVTSSSFQRPVNDMNIASGCPLFCPVSKMEAKNSYVRDDAIFIKAIVDLTGL
notes: range 225-501; Two-hybrid bait construct; also called C-terminal part of TRAF2, amino acids 225 to 501; C-terminal construct comprising the TRAF domain
On to B2, for which the binding result in data set [2] is on record as “binds”. As to B3, the binding result in data set [3] is on record as “binds”. As for B4, the binding result in data set [4] is “no binding”.

B5: IREN198-388 (other)
chain: ESTQNVTSLLKESTQGVSSLFREITASSAVSILIKPEQETDPLPVVSRNVSADAKCKKERKKKKKVTNIISFDDEEDEQNSGDVFKKTPGAGESSEDNSDRSSVNIMSAFESPFGPNSNGSQSSNSWKIDSLSLNGEFGYQKLDVKSIDDEDVDENEDDVYGNSSGRKHRGHSESPEKPLEGNTCLSQMHS
notes: Two-hybrid prey construct
As to B5, in data set [5], the binding result is on record as “binds”. Take B6: the binding result in data set [6] and in data set [7] was “binds” throughout.
